Numbered stars: 1 amine (or outer) side, 2 acyl side, 3 side chain; on linkers, the order of the positions; unused ones are H or OH. Bridge positions count the residues as written; N and C are the ends. Side chains are listed from the residue outwards. Ends that are not written are not given here. * marks the point of attachment. C20 diacid = O=C(O)CCCCCCCCCCCCCCCCCCC(=O)*; γGlu = O=C(O)[C@H](CCC(=O)[*:2])N[*:1]
B1: N^α1-[(4S)-4-carboxy-4-[[(4S)-4-carboxy-4-(19-carboxynonadecanoylamino)butanoyl]amino]butanoyl]-[Glu14,Arg17,Pro21,Pro27,Pro37]-h-amylin (peptide)
peptide: {C20 diacid-γGlu-γGlu}-KCNTATCATQRLAEFLRHSSPNFGAIPSSTNVGSNTP-NH2
modifications: disulfide 2-7
SMILES: CC[C@H](C)[C@H](NC(=O)[C@H](C)NC(=O)CNC(=O)[C@H](Cc1ccccc1)NC(=O)[C@H](CC(N)=O)NC(=O)[C@@H]1CCCN1C(=O)[C@H](CO)NC(=O)[C@H](CO)NC(=O)[C@H](Cc1c[nH]cn1)NC(=O)[C@H](CCCNC(=N)N)NC(=O)[C@H](CC(C)C)NC(=O)[C@H](Cc1ccccc1)NC(=O)[C@H](CCC(=O)O)NC(=O)[C@H](C)NC(=O)[C@H](CC(C)C)NC(=O)[C@H](CCCNC(=N)N)NC(=O)[C@H](CCC(N)=O)NC(=O)[C@@H](NC(=O)[C@H](C)NC(=O)[C@@H]1CSSC[C@H](NC(=O)[C@H](CCCCN)NC(=O)CC[C@H](NC(=O)CC[C@H](NC(=O)CCCCCCCCCCCCCCCCCCC(=O)O)C(=O)O)C(=O)O)C(=O)N[C@@H](CC(N)=O)C(=O)N[C@@H]([C@@H](C)O)C(=O)N[C@@H](C)C(=O)N[C@@H]([C@@H](C)O)C(=O)N1)[C@@H](C)O)C(=O)N1CCC[C@H]1C(=O)N[C@@H](CO)C(=O)N[C@@H](CO)C(=O)N[C@H](C(=O)N[C@@H](CC(N)=O)C(=O)N[C@H](C(=O)NCC(=O)N[C@@H](CO)C(=O)N[C@@H](CC(N)=O)C(=O)N[C@H](C(=O)N1CCC[C@H]1C(N)=O)[C@@H](C)O)C(C)C)[C@@H](C)O
notes: also called compound 14
B2: N^ε1-[(4S)-4-carboxy-4-(19-carboxynonadecanoylamino)butanoyl]-[Glu14,Arg17,Pro21,Pro27,Pro34,Pro37]-h-amylin (peptide)
peptide: K([γGlu-C20 diacid])CNTATCATQRLAEFLRHSSPNFGAIPSSTNVGPNTP-NH2
modifications: disulfide 2-7; N-terminus assumed
SMILES: CC[C@H](C)[C@H](NC(=O)[C@H](C)NC(=O)CNC(=O)[C@H](Cc1ccccc1)NC(=O)[C@H](CC(N)=O)NC(=O)[C@@H]1CCCN1C(=O)[C@H](CO)NC(=O)[C@H](CO)NC(=O)[C@H](Cc1c[nH]cn1)NC(=O)[C@H](CCCNC(=N)N)NC(=O)[C@H](CC(C)C)NC(=O)[C@H](Cc1ccccc1)NC(=O)[C@H](CCC(=O)O)NC(=O)[C@H](C)NC(=O)[C@H](CC(C)C)NC(=O)[C@H](CCCNC(=N)N)NC(=O)[C@H](CCC(N)=O)NC(=O)[C@@H](NC(=O)[C@H](C)NC(=O)[C@@H]1CSSC[C@H](NC(=O)[C@@H](N)CCCCNC(=O)CC[C@H](NC(=O)CCCCCCCCCCCCCCCCCCC(=O)O)C(=O)O)C(=O)N[C@@H](CC(N)=O)C(=O)N[C@@H]([C@@H](C)O)C(=O)N[C@@H](C)C(=O)N[C@@H]([C@@H](C)O)C(=O)N1)[C@@H](C)O)C(=O)N1CCC[C@H]1C(=O)N[C@@H](CO)C(=O)N[C@@H](CO)C(=O)N[C@H](C(=O)N[C@@H](CC(N)=O)C(=O)N[C@H](C(=O)NCC(=O)N1CCC[C@H]1C(=O)N[C@@H](CC(N)=O)C(=O)N[C@H](C(=O)N1CCC[C@H]1C(N)=O)[C@@H](C)O)C(C)C)[C@@H](C)O
B3: N^α1N^α1-[(4S)-4-carboxy-4-(19-carboxynonadecanoylamino)butanoyl]-[Glu14,Arg17,Pro21,Pro27,Glu35]-h-amylin (peptide)
peptide: {C20 diacid-γGlu}-KCNTATCATQRLAEFLRHSSPNFGAIPSSTNVGSETY-NH2
modifications: disulfide 2-7
SMILES: CC[C@H](C)[C@H](NC(=O)[C@H](C)NC(=O)CNC(=O)[C@H](Cc1ccccc1)NC(=O)[C@H](CC(N)=O)NC(=O)[C@@H]1CCCN1C(=O)[C@H](CO)NC(=O)[C@H](CO)NC(=O)[C@H](Cc1c[nH]cn1)NC(=O)[C@H](CCCNC(=N)N)NC(=O)[C@H](CC(C)C)NC(=O)[C@H](Cc1ccccc1)NC(=O)[C@H](CCC(=O)O)NC(=O)[C@H](C)NC(=O)[C@H](CC(C)C)NC(=O)[C@H](CCCNC(=N)N)NC(=O)[C@H](CCC(N)=O)NC(=O)[C@@H](NC(=O)[C@H](C)NC(=O)[C@@H]1CSSC[C@H](NC(=O)[C@H](CCCCN)NC(=O)CC[C@H](NC(=O)CCCCCCCCCCCCCCCCCCC(=O)O)C(=O)O)C(=O)N[C@@H](CC(N)=O)C(=O)N[C@@H]([C@@H](C)O)C(=O)N[C@@H](C)C(=O)N[C@@H]([C@@H](C)O)C(=O)N1)[C@@H](C)O)C(=O)N1CCC[C@H]1C(=O)N[C@@H](CO)C(=O)N[C@@H](CO)C(=O)N[C@H](C(=O)N[C@@H](CC(N)=O)C(=O)N[C@H](C(=O)NCC(=O)N[C@@H](CO)C(=O)N[C@@H](CCC(=O)O)C(=O)N[C@H](C(=O)N[C@@H](Cc1ccc(O)cc1)C(N)=O)[C@@H](C)O)C(C)C)[C@@H](C)O
notes: also called compound 22
B4: N^ε1-[(4S)-4-carboxy-4-(19-carboxynonadecanoylamino)butanoyl]-[Asp14,Arg17,Pro21,Pro27,Pro34,Glu35]-h-amylin (peptide)
peptide: K([γGlu-C20 diacid])CNTATCATQRLADFLRHSSPNFGAIPSSTNVGPETY-NH2
modifications: disulfide 2-7; N-terminus assumed
SMILES: CC[C@H](C)[C@H](NC(=O)[C@H](C)NC(=O)CNC(=O)[C@H](Cc1ccccc1)NC(=O)[C@H](CC(N)=O)NC(=O)[C@@H]1CCCN1C(=O)[C@H](CO)NC(=O)[C@H](CO)NC(=O)[C@H](Cc1c[nH]cn1)NC(=O)[C@H](CCCNC(=N)N)NC(=O)[C@H](CC(C)C)NC(=O)[C@H](Cc1ccccc1)NC(=O)[C@H](CC(=O)O)NC(=O)[C@H](C)NC(=O)[C@H](CC(C)C)NC(=O)[C@H](CCCNC(=N)N)NC(=O)[C@H](CCC(N)=O)NC(=O)[C@@H](NC(=O)[C@H](C)NC(=O)[C@@H]1CSSC[C@H](NC(=O)[C@@H](N)CCCCNC(=O)CC[C@H](NC(=O)CCCCCCCCCCCCCCCCCCC(=O)O)C(=O)O)C(=O)N[C@@H](CC(N)=O)C(=O)N[C@@H]([C@@H](C)O)C(=O)N[C@@H](C)C(=O)N[C@@H]([C@@H](C)O)C(=O)N1)[C@@H](C)O)C(=O)N1CCC[C@H]1C(=O)N[C@@H](CO)C(=O)N[C@@H](CO)C(=O)N[C@H](C(=O)N[C@@H](CC(N)=O)C(=O)N[C@H](C(=O)NCC(=O)N1CCC[C@H]1C(=O)N[C@@H](CCC(=O)O)C(=O)N[C@H](C(=O)N[C@@H](Cc1ccc(O)cc1)C(N)=O)[C@@H](C)O)C(C)C)[C@@H](C)O
B5: N^ε1-[(4S)-4-carboxy-4-(19-carboxynonadecanoylamino)butanoyl]-[Ala14,Arg17,Pro21,Pro27,Pro34]-h-amylin (peptide)
peptide: K([γGlu-C20 diacid])CNTATCATQRLAAFLRHSSPNFGAIPSSTNVGPNTY-NH2
modifications: disulfide 2-7; N-terminus assumed
SMILES: CC[C@H](C)[C@H](NC(=O)[C@H](C)NC(=O)CNC(=O)[C@H](Cc1ccccc1)NC(=O)[C@H](CC(N)=O)NC(=O)[C@@H]1CCCN1C(=O)[C@H](CO)NC(=O)[C@H](CO)NC(=O)[C@H](Cc1c[nH]cn1)NC(=O)[C@H](CCCNC(=N)N)NC(=O)[C@H](CC(C)C)NC(=O)[C@H](Cc1ccccc1)NC(=O)[C@H](C)NC(=O)[C@H](C)NC(=O)[C@H](CC(C)C)NC(=O)[C@H](CCCNC(=N)N)NC(=O)[C@H](CCC(N)=O)NC(=O)[C@@H](NC(=O)[C@H](C)NC(=O)[C@@H]1CSSC[C@H](NC(=O)[C@@H](N)CCCCNC(=O)CC[C@H](NC(=O)CCCCCCCCCCCCCCCCCCC(=O)O)C(=O)O)C(=O)N[C@@H](CC(N)=O)C(=O)N[C@@H]([C@@H](C)O)C(=O)N[C@@H](C)C(=O)N[C@@H]([C@@H](C)O)C(=O)N1)[C@@H](C)O)C(=O)N1CCC[C@H]1C(=O)N[C@@H](CO)C(=O)N[C@@H](CO)C(=O)N[C@H](C(=O)N[C@@H](CC(N)=O)C(=O)N[C@H](C(=O)NCC(=O)N1CCC[C@H]1C(=O)N[C@@H](CC(N)=O)C(=O)N[C@H](C(=O)N[C@@H](Cc1ccc(O)cc1)C(N)=O)[C@@H](C)O)C(C)C)[C@@H](C)O
notes: also called compound 94

Each binder was assayed against T1, human amylin receptor (amylin 3(a) receptor: human calcitonin receptor with RAMP-3) (human, UniProt P30988 25-474; O60896 24-148, limits assumed) (assay: SPA competition binding on membranes of BHK cells with human calcitonin receptor + RAMP-3; displacement of 125I-rat amylin (Assay V)).
T1 construct: whole, on cells; Whole cells in the luciferase assay (Assay II a); also called hAmylin-R; hAmylinR
T1 sequence (looked up) 1: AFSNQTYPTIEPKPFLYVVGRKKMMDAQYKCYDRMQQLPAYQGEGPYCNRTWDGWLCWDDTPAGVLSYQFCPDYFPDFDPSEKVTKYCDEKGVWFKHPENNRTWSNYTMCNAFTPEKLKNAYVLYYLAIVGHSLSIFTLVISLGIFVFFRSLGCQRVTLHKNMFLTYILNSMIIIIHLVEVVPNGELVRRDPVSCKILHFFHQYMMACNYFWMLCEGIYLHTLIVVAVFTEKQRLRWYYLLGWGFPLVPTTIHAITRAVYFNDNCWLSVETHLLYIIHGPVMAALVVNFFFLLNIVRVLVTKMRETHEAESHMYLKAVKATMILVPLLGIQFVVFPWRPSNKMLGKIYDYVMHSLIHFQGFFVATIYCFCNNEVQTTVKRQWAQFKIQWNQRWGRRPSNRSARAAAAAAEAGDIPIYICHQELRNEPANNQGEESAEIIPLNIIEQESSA
T1 sequence (looked up) 2: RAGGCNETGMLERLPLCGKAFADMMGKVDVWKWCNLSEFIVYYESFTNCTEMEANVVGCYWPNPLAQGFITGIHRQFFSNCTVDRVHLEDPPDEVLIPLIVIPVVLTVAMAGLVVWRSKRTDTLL
Procedure: The binding assay was performed using scintillation proximity assay (SPA) beads (RPNQ0001) from PerkinElmer and cell membranes from the Amylin 3(a)/CRE-luc cells (as described in Assay (II)) were used. Membranes were prepared in the following way; the cells were rinsed with PBS and incubated with Versene for approximately 5 min before harvesting. The cells were flushed with PBS and the cell-suspension was centrifuged for 5 min at 1000 rpm. Cells were homogenized (ultrathurrax) in a buffer containing 20 mM Na-HEPES and 10 mM EDTA (pH 7.4) and centrifuged at 20.000 rpm for 15 min. The resulting pellet was resuspended, homogenized and centrifuged (20.000 rpm, 15 min) in a buffer containing 20 mM Na-HEPES and 0.1 mM EDTA (pH 7.4, buffer 2). The resulting pellet was resuspended in buffer 2 and protein concentration was measured (BCA protein Assay, Pierce). The homogenate was kept cold during the whole procedure. The membranes were kept at −80° C. until use. The assay was performed in a 384 well Optiplate (PerkinElmer) in a total volume of 40 ul. Membranes were mixed with SPA beads. Final concentration of membranes 35 ng/μL final and SPA beads was 0.05 mg/well. Test-compounds were dissolved in DMSO and further diluted in assay buffer (50 mM Hepes, pH 7.4, 1 mM CaCl2, 5 mM MgCl₂, 0.1% OA and 0.02% Tween20). […] The final mixture was incubated with shaking at 400 rpm for 120 min at 25° C. prior to centrifugation (1500 rpm, 10 min). Samples were analyzed on TopCounter™ (Packard). The IC₅₀ was calculated using (one site binding competition analysis) GraphPad Prism5 as a measure of receptor affinity.

Binder	IC50 [nM]
B1	0.196
B2	0.214
B3	0.794
B4	0.196
B5	0.148

These binders were tested against T2, human calcitonin receptor (human, UniProt P30988 25-474) (assay: cell-based or functional assay).
T2 sequence (looked up): T1 sequence (looked up) 1

Binder	Ratio hCT/hAmylin funct. [ratio]	hCTR funct. EC50 (pM)
B1	1.6	
B2	0.9	
B3	3.8	
B4	3.9	1120
B5	4.5	
